Reference: the supplement of paper PMC12764529
± gives the half width of the 95% confidence interval.

Tests used:
[1] = folding stability dG unfold from trypsin proteolysis; higher = more stable
In short: (§1)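 K50 was inferred by Bayesian fitting of sequencing counts obtained after protease digestion of designed mini-proteins. Unfolding free energy was derived by comparison with a sequence-predicted unfolded-state K50 and a shared folded-state K50, for each protease or both combined. The mini-proteins were under 80 residues, had no cysteine, were carried in a PA-tagged cDNA display construct, and were kept only if AlphaFold2 dimer inter-PAE exceeded 15.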

[2] = folding stability dG unfold from chymotrypsin proteolysis; higher = more stable
In short: as §1

[3] = folding stability dG unfold (combined trypsin and chymotrypsin); higher = more stable
In short: as §1

Sequence	folding stability dG unfold [1] [kcal/mol]	folding stability dG unfold [2] [kcal/mol]	folding stability dG unfold [3] [kcal/mol]
SAGGSMIITRDPATGLVTVYKNGKKVKTIEVPPGNPVGVSLSYNPSPNTYTVTLTTPESPVKISNLSAGGSA [r2_399_JUSTAS]	0.855 ± 0.032	1.31 ± 0.083	1.15 ± 0.06
SAGGSAGGSEATLEVEVRVDGVLVRVRVEYDLETQELRIEVEVRPLPPPPVEVRTEYRSLEDLSAGGSAGGS [r12_813_TrROS_Hall]	1.23 ± 0.052	1.59 ± 0.26	1.5 ± 0.27
SMKMSPEEKLKELAKELAEKLEEETGKKVKVRVTVEYNGKTFEIEIEEGETIEDIRNKFPGLKIKVEIEPSA [r9_513_TrROS_Hall]	1.34 ± 0.17	0.00992 ± 0.22	1.08 ± 0.41
SAGGSAGGKISKEDLEKILEAIKEGKPITIVKVKVEKNENGEEVEKVEVIKTFTAEELKKLGIESAGGSAGG [r6_402_TrROS_Hall]	1.73 ± 0.14	1.61 ± 0.073	1.43 ± 0.2
SAGGSAGGSAPVLVLETESGVKFETLSLGPGPGALALIVTPDKPALALINLDDPNNIKILASAGGSAGGSAG [r3_450_TrMRF]	1.55 ± 0.045	0.799 ± 0.11	1.18 ± 0.1
SAGGSAGGEISPEDIESVETETRTLPNGLKITRTRVRVKKTNQWFELVRIEPLPAEELSEEELKSAGGSAGG [r6_757_TrROS_Hall]	1.37 ± 0.053	1.78 ± 0.062	1.59 ± 0.13
SAGGSFGIEIEFHGNGFVIEMFNPETDTINTMRFKFDPDGQFTEMEMETIPIPPPPPPEKDENGKESAGGSA [r2_375_TrROS]	2.27 ± 0.16	3.16 ± 0.12	2.94 ± 0.19
SAGMTQTLEVSGPSVKVTLTVAPDGSVTITTTDPNGNTTTTSLYVPPGVPVTIPLPFGGTTITATVTPASAG [r5_237_JUSTAS]	2.38 ± 0.087	2.11 ± 0.071	2.36 ± 0.09
RKIEINIWRNENHWYVRIKLEHPDGKEQELMFPMDSWDEAREFIRGILANLPPNNVKIEDIEIYPPNGQPIS [r1_169_TrROS]	2.85 ± 0.076	4.329 ± 0.023	3.87 ± 0.069
SAMPAENMTPEEAAELALAYVERFRAEVEALGGPIPADTEIVVPVTLEGPPVEIKITFINPDEVEVEVASAG [r14_501_TrMRF]	1.46 ± 0.15	1.17 ± 0.09	1.34 ± 0.17
SAGGSKPEKIKVVSVEVFPDGLIKVKVKTESGYEATALIVKLPGDKYLIFLTIPANGKPFVFELPASAGGSA [r2_361_TrMRF]	2.36 ± 0.059	2.61 ± 0.031	2.54 ± 0.072
SAGGSAMKIKPGETVTIKVKNKETGEWFEAKIVKVDEEKGEIEIEVEVNGKKYTFTIPAEDIEIVESAGGSA [r15_381_TrROS_Hall]	1.87 ± 0.33	3.12 ± 0.077	2.89 ± 0.29
SAGGSAGGSAGAANDPKKIPIHIFPPDGKPIFKVKIEVYDNGIKIKIEWHPSPDGLYPMISAGGSAGGSAGG [r11_874_TrROS]	1.9 ± 0.089	1.98 ± 0.082	1.99 ± 0.14
SAGGMVTITTEKMTEEEAEELKKKLPPNTVLLPNPANDTIVPILVPPDPAVLQAVKDALEKELAEAKSAGGS [r16_311_JUSTAS]	1.49 ± 0.13	0.662 ± 0.24	1.18 ± 0.15
SAGGSAMETIELKLEDGSTLTIERDPENPNTLTITFEDGRKITVTADSAEEALKKALELAKEGKLPSAGGSA [r15_38_TrROS_Hall]	4.36 ± 0.33	4.58 ± 0.16	4.6 ± 0.17
SAGGSAGGSAGAAVSPEELKEKAKKEGYDGEVVVTRLPDGTLRVTVKDKGKKSEITVPLESAGGSAGGSAGG [r11_410_JUSTAS]	0.263 ± 0.064	0.942 ± 0.041	0.672 ± 0.11
SAGGSAGGGGTLTIEVDAPAGAKKINIELPGGTVSNLSYDPSTGKATIPFDTPEQAKAVEALVGSAGGSAGG [r6_745_TrMRF]	-0.493 ± 0.097	0.098 ± 0.088	-0.086 ± 0.058
SAGGSAGGSAGGKTYKITVSSGDTYLTISIELPDGLVLTYKITPNSIEVEIKPLKDFNESAGGSAGGSAGGS [r10_1169_TrMRF]	3.42 ± 0.19	5.3 ± 0.2	5.51 ± 0.43
SAGGPLSEEELEALRKALEAARAAGAETVTLTATLTVTRTVTLPDGSTRTETRTLTLTLTVTLPPEESAGGS [r8_203_TrROS_Hall]	3.74 ± 0.1	4.73 ± 0.079	4.45 ± 0.12
SAGSMLSVEEVEVTYNNPETGTPATIKLTVPVFYDPVTGRVEVEVEVEPSPEVPEEVAKEIAEKVKEKRSAG [r14_152_JUSTAS]	-1.26 ± 0.95	0.494 ± 0.066	-0.0138 ± 0.35
KTLVIHAKTPEEILAAIKEAIKEGKTVVIEMSPELIEALKEAGFEIEKIEEVEEIDGKKIYRVVIEVKPKES [r1_173_TrROS_Hall]	1.66 ± 0.084	3.36 ± 0.058	2.87 ± 0.2

Sequence	folding stability dG unfold [1] [kcal/mol]	folding stability dG unfold [2] [kcal/mol]	folding stability dG unfold [3] [kcal/mol]
SGYLDAPVKDIKVEKKPIPTSGKVTYTFEAETEDGKPVRVEYNPVTGKIVFGLPPGFKIKPGKPAEVVVGSA [r9_509_TrMRF]	0.16 ± 0.081	0.885 ± 0.2	0.718 ± 0.13
SAGKWVTIEIPIYIPGNPSQLKDLVEEIANILAAHGMKINVDVEVYPVDDYYIVKITVTVRMPPGMPIISAG [r5_217_TrROS]	3.75 ± 0.17	3.23 ± 0.1	3.41 ± 0.19
SAGGSAGGSAGGKMYLIKVKVDGEEKLIKVKSLEEAKKLLEEKGYKIESVEIFEVEEEEESAGGSAGGSAGG [r7_726_TrROS_Hall]	4.14 ± 0.23	4.07 ± 0.059	4.09 ± 0.073
SAGGSAGGSAGGFTVTVVEPVDPNDPAFKKLMEERGLPPEEVVATKTLTADSEEEIAALLSAGGSAGGSAGG [r11_83_JUSTAS]	0.283 ± 0.099	0.219 ± 0.15	0.238 ± 0.12
SAGGWRLRIHIENPGNGRWITHTFPMPPGNIEKIADDMLEMLPGWKITGVEIVYEPGWITITARVKPKSAGG [r13_196_TrROS]	2.252 ± 0.016	2.9 ± 0.035	2.74 ± 0.064
SAGGSASLFIPVPPTDTSPVTVEITIGNSKYRATLTVDPNNPNLMTVTLTDPNGGATTTETVPLLDSAGGSA [r15_328_JUSTAS]	1.8 ± 0.034	1.78 ± 0.031	1.79 ± 0.069
SAAPADNPVLVATLTVTVTRPVSFTSPDGSTGTVPETETRTLVLVADAGNDPEALERALELARRLAETVSAG [r14_830_TrMRF]	2.73 ± 0.076	4.04 ± 0.076	3.51 ± 0.099
SAKKKFKVKEVKVTKHKGKFKIGDKEIEKELYTVNVVIEDENGNKYPFTFTFEKPEELKKFVEKLEEEKSAG [r14_36_TrMRF]	3.03 ± 0.17	4.075 ± 0.028	3.61 ± 0.2
SAMKEGEEYEPVEKKKITIKNKKTNKTIEIEVVRNKKTNKYIVKITTKDGKKIEIVVSKEELEKLLKKLSAG [r14_240_TrROS_Hall]	2.25 ± 0.19	3.08 ± 0.17	3.01 ± 0.26
SAGGGEKWKIKFKDAEAYINAPEGKVEIVPPDGSKITIDFPPDIPPEVVAKLLAEELGFDEAEIEPVESAGG [r13_852_TrMRF]	-0.263 ± 0.085	0.357 ± 0.13	0.168 ± 0.14
SAGGFKIEIEKNPEPDGIVIVIEYDMPPKGIKDFIEELFGPNPKDVTTEEHPNGRTEVTFRIPPGAPSAGGS [r16_605_TrROS]	-0.426 ± 0.43	0.33 ± 0.34	0.268 ± 0.3
SAGMVTITVETTDPQGNWTTKTYEFPLDPGYSLDDVIKRHSPPNAKKYEVTKTEPPPPVTEIKLTVEPSSAG [r5_227_JUSTAS]	0.698 ± 0.082	1.1 ± 0.19	0.822 ± 0.46
SAWKIEIKEVKRNPDGWYEITITIPFPGDPNMPVDELADEILQEFGIKDVTVEPNPDNGWIEITIRIPRSAG [r14_228_TrROS]	2.45 ± 0.067	2.53 ± 0.057	2.48 ± 0.19
SKKVKIVIKIKVEVTNKDGKKKTFEFTLVIELSEEEIEKLKKKIEDLLNELKKKYPNIKKVEITEIKILPSA [r9_436_TrROS_Hall]	3.59 ± 0.26	4.4 ± 0.32	4.31 ± 0.62
SAMKIEIIEEKEGEIIIKIEATKEEVEELAEELKKKFPGVEVEVEYDKETKKVYIRIKFKKKPSEEELKSAG [r14_600_TrROS_Hall]	3.05 ± 0.62	3.9 ± 0.33	3.82 ± 0.31
SAGGMEKAIKEIKEAAKKGEEAVIVLPKNVDPSELISAIEKETGAKVEPLEVKPLPNGELVIKIKVKSAGGS [r16_318_TrMRF]	1.44 ± 0.1	2.23 ± 0.16	1.89 ± 0.12
SAGGSAGGSAGMKIKFPNGKVVEIHMDEDSGNIEIEFPDGKKKEINIPGMSIDDILDYLKSAGGSAGGSAGG [r11_729_TrROS]	1.56 ± 0.036	1.46 ± 0.033	1.59 ± 0.045
SAGGSAKGLKVTFSHPDVEILSVKSYPGLGLAEVEFRYGDKLYRALVRFEPDDGGIAEATVEPVPGSAGGSA [r15_297_TrMRF]	1.58 ± 0.024	2.844 ± 0.026	2.55 ± 0.079
SAGGSGPLLERALEEIREALAKAKEGEEVEIEVKVTVTGPDGRTREFTFRIRFVVKDGKIVKVEIESAGGSA [r2_173_TrROS_Hall]	3.74 ± 0.22	4.94 ± 0.085	4.66 ± 0.14
SAGGSAGGSVPLELELTFKLENGSFIVVKAKIEFNPETPEFKVEVLSVEIFLEPEGKIVSDEDFSAGGSAGG [r6_864_TrMRF]	1.43 ± 0.087	3.08 ± 0.085	2.44 ± 0.29
SMKKNTLTLTVKVKVTVTVVKKKKDGKEEVVKKETVEVTVKVTFLSKEELEKLKKELEKLKKELEELKKKSA [r9_1192_TrROS_Hall]	2.72 ± 0.27	4.7 ± 0.27	3.39 ± 0.75
